The target of the test is HA-p68 (wild type) (UniProt P17844).

The values that follow come from paper PMC3552336.

Sequence of UniProt P17844 (P17844 whole entry): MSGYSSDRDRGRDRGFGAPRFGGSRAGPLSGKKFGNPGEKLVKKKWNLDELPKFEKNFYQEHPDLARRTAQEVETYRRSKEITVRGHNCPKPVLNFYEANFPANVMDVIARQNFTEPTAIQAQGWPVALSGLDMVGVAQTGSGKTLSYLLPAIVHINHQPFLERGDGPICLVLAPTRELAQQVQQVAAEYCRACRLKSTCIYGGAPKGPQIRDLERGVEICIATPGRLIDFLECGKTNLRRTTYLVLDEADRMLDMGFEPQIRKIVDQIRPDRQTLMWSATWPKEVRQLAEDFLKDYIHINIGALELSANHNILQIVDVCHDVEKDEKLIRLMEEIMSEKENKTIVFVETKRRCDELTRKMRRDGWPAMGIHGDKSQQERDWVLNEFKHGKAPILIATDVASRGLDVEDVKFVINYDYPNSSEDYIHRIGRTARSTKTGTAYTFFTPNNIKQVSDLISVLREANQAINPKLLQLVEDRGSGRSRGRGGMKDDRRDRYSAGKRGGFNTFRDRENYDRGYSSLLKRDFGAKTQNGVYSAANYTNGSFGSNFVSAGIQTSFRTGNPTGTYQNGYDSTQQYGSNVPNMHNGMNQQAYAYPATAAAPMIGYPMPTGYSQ

“Rhodamine labeled microtubule (from UniProt P02550;P02554) (complex)” came in with a microtubule gliding assay, p68/Ca^2+-CaM (ATP): % of gliding microtubules (n=50) of 74.2%; a microtubule gliding assay, p68/Ca^2+-CaM (ATP): maximum gliding speed of 0.52 µm/min; a microtubule gliding assay, p68/Ca^2+-CaM (ATP): mean gliding speed of 0.16 µm/min.
